Tests used:
SRSF1 [1] = target: T1, SRSF1 (UniProt Q07955 1-248); assay: SPR imaging; Kd NA, Rmax 0, maximum 0; SPRi (IBIS MX-96): 10 mM HEPES/KOH pH 7.9, 150 mM KCl, 10 mM MgCl2, 0.075% Tween-80; 6.25-400 nM protein over immobilized biotinylated RNA; 20 mg/ml BSA block; conditions: protein: recombinant; label: 3' biotin
hnRNP A1 [2] = target: T2, hnRNP A1 (UniProt P09651 1-372); assay: SPR imaging; 1:2 biphasic fit, primary Kd; low Rmax 58.75; SPRi (IBIS MX-96): 10 mM HEPES/KOH pH 7.9, 150 mM KCl, 10 mM MgCl2, 0.075% Tween-80; 6.25-400 nM protein over immobilized biotinylated RNA; 20 mg/ml BSA block; conditions: protein: commercial; label: 3' biotin
T2 sequence (P09651 whole entry): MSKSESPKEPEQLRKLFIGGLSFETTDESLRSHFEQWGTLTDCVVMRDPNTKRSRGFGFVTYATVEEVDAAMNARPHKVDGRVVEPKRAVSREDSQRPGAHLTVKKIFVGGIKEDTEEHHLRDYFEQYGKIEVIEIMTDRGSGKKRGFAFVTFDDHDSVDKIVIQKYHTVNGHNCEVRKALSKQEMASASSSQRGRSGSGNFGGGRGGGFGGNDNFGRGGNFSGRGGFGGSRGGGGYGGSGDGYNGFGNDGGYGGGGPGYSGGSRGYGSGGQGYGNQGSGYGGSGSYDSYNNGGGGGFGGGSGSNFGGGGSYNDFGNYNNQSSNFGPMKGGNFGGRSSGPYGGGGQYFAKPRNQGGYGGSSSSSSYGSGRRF

SRSF1 [3] = target: T1, SRSF1; assay: SPR imaging; SPRi (IBIS MX-96): 10 mM HEPES/KOH pH 7.9, 150 mM KCl, 10 mM MgCl2, 0.075% Tween-80; 6.25-400 nM protein over immobilized biotinylated RNA; 20 mg/ml BSA block; conditions: protein: recombinant; label: 3' biotin
hnRNP A1 [4] = target: T2, hnRNP A1; assay: SPR imaging; 1:2 biphasic fit, primary Kd; SPRi (IBIS MX-96): 10 mM HEPES/KOH pH 7.9, 150 mM KCl, 10 mM MgCl2, 0.075% Tween-80; 6.25-400 nM protein over immobilized biotinylated RNA; 20 mg/ml BSA block; conditions: protein: commercial; label: 3' biotin
hnRNP A1 [5] = target: T2, hnRNP A1; assay: SPR imaging; 1:2 biphasic fit, primary Kd; fitted maximum higher than WT (60.5 vs 49.6); SPRi (IBIS MX-96): 10 mM HEPES/KOH pH 7.9, 150 mM KCl, 10 mM MgCl2, 0.075% Tween-80; 6.25-400 nM protein over immobilized biotinylated RNA; 20 mg/ml BSA block; conditions: protein: commercial; label: 3' biotin
TDP-43 = TDP-43 (UniProt Q13148 1-414); assay: SPR imaging; pronounced increase vs wt; SPRi (IBIS MX-96): 10 mM HEPES/KOH pH 7.9, 150 mM KCl, 10 mM MgCl2, 0.075% Tween-80; 6.25-400 nM protein over immobilized biotinylated RNA; 20 mg/ml BSA block; conditions: protein: commercial; label: 3' biotin
Sequence of TDP-43 (Q13148 whole entry): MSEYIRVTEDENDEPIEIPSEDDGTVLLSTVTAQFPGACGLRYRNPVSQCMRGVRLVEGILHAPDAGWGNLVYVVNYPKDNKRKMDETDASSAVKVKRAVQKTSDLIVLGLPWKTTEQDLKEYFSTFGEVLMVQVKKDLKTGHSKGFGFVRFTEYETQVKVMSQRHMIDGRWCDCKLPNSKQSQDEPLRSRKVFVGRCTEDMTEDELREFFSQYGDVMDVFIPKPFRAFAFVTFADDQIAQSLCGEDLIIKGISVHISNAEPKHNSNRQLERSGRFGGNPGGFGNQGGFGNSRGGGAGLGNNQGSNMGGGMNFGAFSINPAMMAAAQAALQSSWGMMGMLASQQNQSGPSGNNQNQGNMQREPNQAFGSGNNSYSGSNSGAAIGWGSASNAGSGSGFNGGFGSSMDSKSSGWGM

hnRNP A1 [6] = target: T2, hnRNP A1; assay: SPR imaging; 1:2 biphasic fit, primary Kd; fitted maximum higher than SMN1 (1260 vs 885); SPRi (IBIS MX-96): 10 mM HEPES/KOH pH 7.9, 150 mM KCl, 10 mM MgCl2, 0.075% Tween-80; 6.25-400 nM protein over immobilized biotinylated RNA; 20 mg/ml BSA block; conditions: protein: commercial; label: 3' biotin
hnRNP A1 [7] = target: T2, hnRNP A1; assay: SPR imaging; 1:2 biphasic fit, primary Kd; text: increased binding vs WT (maximum 718 vs 131); SPRi (IBIS MX-96): 10 mM HEPES/KOH pH 7.9, 150 mM KCl, 10 mM MgCl2, 0.075% Tween-80; 6.25-400 nM protein over immobilized biotinylated RNA; 20 mg/ml BSA block; conditions: protein: commercial; label: 3' biotin
hnRNP A1 [8] = target: T2, hnRNP A1; assay: SPR imaging; 1:2 biphasic fit, primary Kd; low Rmax 68.35; SPRi (IBIS MX-96): 10 mM HEPES/KOH pH 7.9, 150 mM KCl, 10 mM MgCl2, 0.075% Tween-80; 6.25-400 nM protein over immobilized biotinylated RNA; 20 mg/ml BSA block; conditions: protein: commercial; label: 3' biotin

T1 sequence (Q07955 whole entry): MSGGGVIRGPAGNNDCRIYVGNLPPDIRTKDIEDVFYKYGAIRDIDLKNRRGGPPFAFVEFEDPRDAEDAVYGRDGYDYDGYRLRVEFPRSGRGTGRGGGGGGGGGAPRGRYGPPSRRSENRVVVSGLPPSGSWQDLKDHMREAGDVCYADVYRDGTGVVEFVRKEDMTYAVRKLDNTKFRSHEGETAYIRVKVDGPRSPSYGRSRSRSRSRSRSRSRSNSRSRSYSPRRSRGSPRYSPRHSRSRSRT

Row | Binder | Kd (SRSF1 [3]) [nM] | Kd (hnRNP A1 [4]) [nM] | other results
1 | CAUUCUUCGACUAGC (ssRNA) [MLH1EX17 WT] |  |  | binding result (SRSF1 [1]): no binding; Kd (hnRNP A1 [2]): 32 nM
2 | GGGAGAUGGAAUCAA (ssRNA) [ATP7AEX20 WT] | 913 | 886 | 
3 | AUUUUUGGAAGAGUG (ssRNA) [NF1EX30 WT] | 168 | 632 | 
4 | UGACCUCAAAACAGC (ssRNA) [ATMEX44 MUT] | 10500 |  | Kd (hnRNP A1 [5]): 211000 nM
5 | UGAUGUGUGUGAGUGUGUGUAAC (ssRNA) [ACADM exon 6 5'ss +7A>G 23 nt] |  |  | binding result (TDP-43): binds
6 | AGGGUUUUAGACAAA (ssRNA) [SMN2E7T] | 249000 |  | Kd (hnRNP A1 [6]): 1040 nM
7 | UCCCAGUCAGAGGCG (ssRNA) [PTENEX6 WT] | 5800 | 1160 | 
8 | AUUUUUGUAAGAGUG (ssRNA) [NF1EX30 MUT] | 248000 | 1080 | 
9 | AGGGUUUCAGACAAA (ssRNA) [SMN1E7C] | 302 | 733 | 
10 | UGACCUCGAAACAGC (ssRNA) [ATMEX44 WT] | 60900 | 3890 | 
11 | GGGAGAUAGAAUCAA (ssRNA) [ATP7AEX20 MUT] | 5090 |  | Kd (hnRNP A1 [7]): 989 nM
12 | CAUUCUUUGACUAGC (ssRNA) [MLH1EX17 MUT] |  |  | binding result (SRSF1 [1]): no binding; Kd (hnRNP A1 [8]): 118 nM
13 | UCCCAGUUAGAGGCG (ssRNA) [PTENEX6 MUT] | 161000 | 1450 | 

From paper PMC7367176, “Grønning Alexander Gulliver Bjørnholt Department of Biochemistry and Molecular Biology, University of Southern Denmark, 5230 Odense M, Denmark”
